Test: Pharmacokinetics study in mice after tail vein injection
Format: in vivo
Details: fasted CD1 mice, i.v. tail vein, 16 Qg/kg of insulin, 3-60 min, ELISA, n = 5

insulin
plasma concentration of insulin after injection: not detectable at any time point

From PMC5352466 (Bioconjugate chemistry, 2017)
